Measured values published in paper PMC10425521, “Crosstalk between glucocorticoid and mineralocorticoid receptors boosts glucocorticoid-induced killing of multiple myeloma cells” (Cellular and Molecular Life Sciences: CMLS, 2023).

Tests used:
[1] = biological target: T1, LgBiT-MR (mineralocorticoid receptor with LgBiT at the N-terminus) (UniProt P08235 1-984); test: split reporter (BiFC, NanoBiT); NanoBiT in intact HEK293T cells, Dex (10^-6 M) added after baseline, luminescence over 60 min, normalised to baseline and given as fold versus solvent; conditions: partners not purified
T1 construct: mineralocorticoid receptor (MR, NR3C2); NanoBiT fusion; also called pLgBiT-MR; source: HEK293T, transfected (calcium phosphate), in intact cells; not shown: LgBiT, N-terminal, kept
T1 sequence (looked up): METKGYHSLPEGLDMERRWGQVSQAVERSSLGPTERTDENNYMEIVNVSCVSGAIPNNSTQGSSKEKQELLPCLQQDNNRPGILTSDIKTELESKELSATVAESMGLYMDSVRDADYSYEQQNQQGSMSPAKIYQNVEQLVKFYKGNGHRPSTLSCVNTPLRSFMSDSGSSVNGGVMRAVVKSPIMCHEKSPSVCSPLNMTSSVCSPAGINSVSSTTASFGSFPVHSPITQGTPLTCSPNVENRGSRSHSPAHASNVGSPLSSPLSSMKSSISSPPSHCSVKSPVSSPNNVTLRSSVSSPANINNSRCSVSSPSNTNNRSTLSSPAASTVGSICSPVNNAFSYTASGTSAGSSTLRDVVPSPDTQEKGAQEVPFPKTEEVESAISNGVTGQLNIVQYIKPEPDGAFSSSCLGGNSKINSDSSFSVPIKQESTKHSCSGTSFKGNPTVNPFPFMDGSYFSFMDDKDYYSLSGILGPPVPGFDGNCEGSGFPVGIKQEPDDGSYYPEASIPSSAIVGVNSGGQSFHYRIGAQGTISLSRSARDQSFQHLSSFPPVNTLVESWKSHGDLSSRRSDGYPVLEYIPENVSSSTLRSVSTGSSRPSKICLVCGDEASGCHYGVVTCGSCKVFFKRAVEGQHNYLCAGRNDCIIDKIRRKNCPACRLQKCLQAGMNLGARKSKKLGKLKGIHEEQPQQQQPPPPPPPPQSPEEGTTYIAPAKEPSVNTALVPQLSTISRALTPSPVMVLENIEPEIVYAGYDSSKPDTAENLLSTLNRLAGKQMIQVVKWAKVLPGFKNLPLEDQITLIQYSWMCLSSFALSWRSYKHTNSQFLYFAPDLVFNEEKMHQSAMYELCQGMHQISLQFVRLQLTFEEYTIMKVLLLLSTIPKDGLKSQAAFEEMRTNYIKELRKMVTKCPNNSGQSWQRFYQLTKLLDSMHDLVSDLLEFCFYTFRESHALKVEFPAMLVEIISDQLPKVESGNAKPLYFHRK

[2] = biological target: T1, LgBiT-MR (mineralocorticoid receptor …); test: split reporter (BiFC, NanoBiT); NanoBiT in intact HEK293T cells, Dex (10^-6 M) together with Spi (10^-5 M) added after baseline, luminescence over 60 min, normalised to baseline and given as fold versus solvent; conditions: partners not purified

B1: GR-SmBiT (glucocorticoid receptor with SmBiT at the C-terminus) (receptor, UniProt P04150 1-777, looked up)
chain: MDSKESLTPGREENPSSVLAQERGDVMDFYKTLRGGATVKVSASSPSLAVASQSDSKQRRLLVDFPKGSVSNAQQPDLSKAVSLSMGLYMGETETKVMGNDLGFPQQGQISLSSGETDLKLLEESIANLNRSTSVPENPKSSASTAVSAAPTEKEFPKTHSDVSSEQQHLKGQTGTNGGNVKLYTTDQSTFDILQDLEFSSGSPGKETNESPWRSDLLIDENCLLSPLAGEDDSFLLEGNSNEDCKPLILPDTKPKIKDNGDLVLSSPSNVTLPQVKTEKEDFIELCTPGVIKQEKLGTVYCQASFPGANIIGNKMSAISVHGVSTSGGQMYHYDMNTASLSQQQDQKPIFNVIPPIPVGSENWNRCQGSGDDNLTSLGTLNFPGRTVFSNGYSSPSMRPDVSSPPSSSSTATTGPPPKLCLVCSDEASGCHYGVLTCGSCKVFFKRAVEGQHNYLCAGRNDCIIDKIRRKNCPACRYRKCLQAGMNLEARKTKKKIKGIQQATTGVSQETSENPGNKTIVPATLPQLTPTLVSLLEVIEPEVLYAGYDSSVPDSTWRIMTTLNMLGGRQVIAAVKWAKAIPGFRNLHLDDQMTLLQYSWMFLMAFALGWRSYRQSSANLLCFAPDLIINEQRMTLPCMYDQCKHMLYVSSELHRLQVSYEEYLCMKTLLLLSSVPKDGLKSQELFDEIRMTYIKELGKAIVKREGNSSQNWQRFYQLTKLLDSMHEVVENLLNYCFQTFLDKTMSIEFPEMLAEIITNQIPKYSNGNIKKLLFHQK
notes: glucocorticoid receptor (GR, NR3C1); NanoBiT fusion; also called pGR-SmBiT; source: HEK293T, transfected (calcium phosphate), in intact cells; not shown: SmBiT, C-terminal, kept
[1]
  fold induction of NanoBiT luminescence versus solvent (with Dex): ~8 fold
[2]
  fold induction of NanoBiT luminescence versus solvent (with Dex and Spi): ~6 fold
